Test results published in patent US20240287208A1 (CONCEPT TO MEDICINE BIOTECH, published 2024).
Substitutions are numbered along the chain they refer to.

T1: human OX40 protein (human, UniProt P43489 29-216, limits assumed)
T1 sequence (looked up): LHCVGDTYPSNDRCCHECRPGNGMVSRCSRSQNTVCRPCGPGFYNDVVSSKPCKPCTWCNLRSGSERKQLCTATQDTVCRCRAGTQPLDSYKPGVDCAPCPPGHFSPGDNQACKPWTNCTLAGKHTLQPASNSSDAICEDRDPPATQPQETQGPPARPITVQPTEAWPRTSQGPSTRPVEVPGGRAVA

B1: 2p551 chimeric monospecific antibody (antibody, V domains shown)
VH: QLHFVESGGGLVQPGGSLRLSCAASGFTLDYYAIGWFRQAPGKEREGVSCISGGGSTRYADSVKGRFTISRDNAKNTVYLQMNSLTPEDTAVYYCAAARLLSTNCVPRDSGSWGQGTQVTVSS
notes: Chimeric monospecific antibody
B2: 2p415 chimeric monospecific antibody (antibody, V domains shown)
VH: B1 VH with Y31H, I34M, V63A, T103R
notes: as for B1
B3: 2p1130 chimeric monospecific antibody (antibody, V domains shown)
VH: EVQVVESGGGLVQPGGSLRLTCAASGFSVDDYGIGWFRQAPGREREGVACITPNGLMMNFANTVGSVAGRFSASRDSGENTVSLQMSSLKPEDTAIYFCAHSRDDSCRGSLSDYDDWGQGTQVTVSS
notes: as for B1
B4: 42p155 chimeric monospecific antibody (antibody, V domains shown)
VH: PSQLVESGGGLVQPGGSLRLSCAASGFAFRSYTMSWVRQAPGKGLEWVSTITHNGAITTYAESAQGRFTISRDNAKNTLYLQMNSLKPEDTAVYYCAQGGGSNYYRESWGQGTQVTVSS
notes: Chimeric monospecific antibody (cAb) made from the VHH; also called 42p155 cAb
B5: 2p1294 chimeric monospecific antibody (antibody, V domains shown)
VH: B4 VH with P1Q, S2V, A28S, S31R, T50A, T52S, H53D, A61T
notes: as for B1
B6: 42p655 chimeric monospecific antibody (antibody, V domains shown)
VH: B4 VH with P1A, S2V, S31R, T50S, H53D, A56S, Y95H
notes: as for B1
B7: 42p495 chimeric monospecific antibody (antibody, V domains shown)
VH: PVQLVESGGNLVQPGGSLRLSCVAPGFTSRNSAMSWVRQAPGKGLEWVSTIYSGKSNTDYADSVKGRFTISTDNAKNTLYLHMNKLKSEDTAVYYCAKGAASDWYVPRDYWGQGTQVTVSS
notes: as for B1
B8: 2p957 chimeric monospecific antibody (antibody, V domains shown)
VH: PVQLVESGGGLVQPGGSLRLSCAASGFSFRNYIMSWVRQAPGKGLEWLSSITNSGGITSYTESVKGRFTISRDNAKNTLYLQMNSLKPEDTAVYYCAQGGSDNYYRGSWGQGTQVTVSS
notes: as for B1

target: human CD40 on the cell surface (human, UniProt P25942 21-277); experiment: cell-based or functional assay
Sequence (P25942 21-277): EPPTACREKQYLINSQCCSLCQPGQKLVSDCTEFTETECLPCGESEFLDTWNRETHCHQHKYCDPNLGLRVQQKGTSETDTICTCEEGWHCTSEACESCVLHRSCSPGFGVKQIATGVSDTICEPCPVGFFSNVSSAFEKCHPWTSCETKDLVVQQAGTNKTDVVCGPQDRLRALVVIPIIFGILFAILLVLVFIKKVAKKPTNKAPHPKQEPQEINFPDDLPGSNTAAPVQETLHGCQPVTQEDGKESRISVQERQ

Row | Binder | CD40 NF-κB luciferase reporter (Jurkat), RLU [nM]
1 | B1 | > 10
2 | B2 | > 10
3 | B3 | > 10
4 | B4 | > 10
5 | B5 | > 10
6 | B6 | > 10
7 | B7 | > 10
8 | B8 | > 10

target: T2, human 4-1BB protein (human, UniProt Q07011 24-186); experiment: ELISA, plate-coated protein
T2 construct: also called 4-IBB
Procedure: (§1) To evaluate the cross reactivity of chimeric anti-CD40 antibodies to other family members of TNF receptors, the ELISA binding towards human 4-1BB and human OX40 were performed.
(§2) Briefly, microtiter plates were coated with human 4-1BB protein or human OX40 protein at 1 μg/ml in PBS, 100 μl/well at 4° C. overnight, then blocked with 150 μl/well of 1% BSA. Ten-fold dilutions of 42p155, 2p834, 2p931, 42p655, 2p1294, 2p957, 42p495, 3p78, 2p415, 2p442, 2p551, 2p80 and 2p1130 antibodies starting from 100 nM were added to each well and incubated for 1 hour at RT. The plates were washed with PBS/Tween and then incubated with Anti-Human IgG (H&L) (GOAT) Antibody Peroxidase Conjugated for 30 mins at RT. After washing, the plates were developed with TMB substrate and analyzed by spectrophotometer at OD 450 nm.

Row | Binder | binding result
9 | B1 | no binding (tested: 100 nM (highest concentration))
10 | B2 | no binding (tested: 100 nM (highest concentration))
11 | B3 | no binding (tested: 100 nM (highest concentration))
12 | B4 | no binding (tested: 100 nM (highest concentration))
13 | B5 | no binding (tested: 100 nM (highest concentration))
14 | B6 | no binding (tested: 100 nM (highest concentration))
15 | B7 | no binding (tested: 100 nM (highest concentration))
16 | B8 | no binding (tested: 100 nM (highest concentration))

target: T1, human OX40 protein; experiment: ELISA, plate-coated protein
Procedure: as §1, §2

Row | Binder | binding result
17 | B1 | no binding (tested: 100 nM (highest concentration))
18 | B2 | no binding (tested: 100 nM (highest concentration))
19 | B3 | no binding (tested: 100 nM (highest concentration))
20 | B4 | no binding (tested: 100 nM (highest concentration))
21 | B5 | no binding (tested: 100 nM (highest concentration))
22 | B6 | no binding (tested: 100 nM (highest concentration))
23 | B7 | no binding (tested: 100 nM (highest concentration))
24 | B8 | no binding (tested: 100 nM (highest concentration))

target: T3, human CD40-His protein (human, UniProt P25942 21-193); experiment: ELISA, plate-coated human CD40-His
T3 construct: His-tagged recombinant protein; also called human CD40-his tag; recombinant CD40 protein
T3 sequence (P25942 21-193 limits assumed): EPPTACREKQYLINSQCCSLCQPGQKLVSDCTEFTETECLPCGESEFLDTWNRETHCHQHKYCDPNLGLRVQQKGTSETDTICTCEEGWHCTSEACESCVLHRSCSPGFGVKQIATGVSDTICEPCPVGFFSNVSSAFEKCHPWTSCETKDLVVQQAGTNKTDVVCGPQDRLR
Procedure: (§3) To evaluate the binding activity of clones 42p155, 2p834, 2p931, 42p655, 2p1294, 2p957, 42p495, 3p78, 2p415, 2p442, 2p551, 2p80 and 2p1130, the chimeric monospecific antibody (mAb) from these clones were subjected to ELISA test, along with selicrelumab, the clinical benchmark anti-CD40 agonist antibodies.
as §2, with “human CD40-His” for “human 4-1BB protein or human OX40”, “at 1.0” for “at 1”, “150 µl/well” for “150 μl/well”

Row | Binder | EC50 [nM]
25 | B1 | 1.4
26 | B2 | 1.27
27 | B3 | 2.56
28 | B5 | 1.16
29 | B6 | 1.24
30 | B7 | 1.52
31 | B8 | 1.8

target: T4, cynomolgus CD40-His protein (cynomolgus, UniProt G7PG38 21-193); experiment: ELISA, plate-coated cynomolgus CD40-His
T4 construct: His-tagged recombinant protein; also called cyno CD40 antigen
Procedure: as §3
as §2, with “The binding affinity of these clones to cynomolgus CD40 was also tested. Microtiter plates” for “Briefly, microtiter plates”, “with cynomolgus CD40-His” for “with human 4-1BB protein or human OX40”, “at 1.0” for “at 1”, “100 µl/well” for “100 μl/well”, “150 µl/well” for “150 μl/well”, “nm. As shown in FIG. 1B and Table 2, all these clones bound to cynomolgus CD40 at high activity, showing good cross-reactivity between human and cynomolgus CD40 proteins.” for “nm.”

Row | Binder | EC50 [nM]
32 | B1 | 0.13
33 | B2 | 0.23
34 | B3 | 0.73
35 | B5 | 0.32
36 | B6 | 0.35
37 | B7 | 1
38 | B8 | 1.08
